The target in assay [1] is TRIM21 PRYSPRY domain (human) (UniProt P19474). The experiment in a line: SPR; Biacore T200, C1 chip, 25 °C, HBS-EP+; biotinylated PRYSPRY domain captured via monovalent streptavidin at low density (about 3 RU); (antibody) Fc constructs injected in five two-fold dilutions from 200 nM; global monophasic fit, affinity mode. For orientation: In SPR one partner is held on a chip, and binding of the other changes the refractive index at the surface.

The target of assay [2] is anti-AAV2 capsid antibody A20 WT (human). The experiment in a line: SPR; A20 antibody variants and TRIM21-CC-PS; orientation not told in the text (Supplementary Figure S8); apparent (avidity) constant.
A further assay concerns the target mAb1 WT-AAA (human). Briefly: mass photometry; TRIM21-CC-PS incubated 10 min with antibody Fc variants at different molar ratios, low nM; PBS pH 7.4, room temperature.
In the next assay the target is mAb1 YTE (human). The experiment in a line: SPR; antibody Fc variants captured via anti-human Fab-kappa ligand at low density (approx. 8-10 RU); TRIM21-CC-PS injected, two-fold series from 100 nM, 180 s association, 600 s dissociation; 25°C, HBS-EP+; 1:1 fit; apparent (avidity) constants.
A further assay addresses mAb1 HH (human). The assay is described as above.
The target of assay [3] is mAb1 YTE (human IgG1, M252Y, S254T, T256E) (human). The experiment in a line: SPR; Biacore T200, C1 chip, 25 °C, HBS-EP+; (antibody) Fc variants captured at low density (about 8-10 RU) via anti-human Fab-kappa nanobody or anti-PGLALA F(ab')2; TRIM21-CC-PS injected 180 s in two-fold dilutions from 100, 400, 500 or 1000 nM; global 1:1 Langmuir fit; avidity (apparent) mode for symmetrical, affinity mode for asymmetrical Fc variants.

Assay [4] concerns the target mAb1 YTE-AAA (asymmetrical human IgG1, one Fc heavy chain YTE, the other AAA) (human). Described as above.
For assay [5], the target named is mAb1 WT-AAA (asymmetrical human IgG1, one Fc heavy chain H310A, H433A, Y436A) (human). The description is as above.
Assay [6] addresses mAb1 HH (human IgG1, T307H, N434H) (human). The description is as above.
Assay [7] deals with mAb1 HH-AAA (asymmetrical human IgG1, one Fc heavy chain HH, the other AAA) (human). Described as above.
The target of assay [8] is anti-AAV2 capsid antibody A20 WT (bivalent, human IgG1 Fc WT) (human). Described as above.

pKd: −log10 of the molar value.

TRIM21 PRYSPRY domain (human), sequence (P19474 277-475): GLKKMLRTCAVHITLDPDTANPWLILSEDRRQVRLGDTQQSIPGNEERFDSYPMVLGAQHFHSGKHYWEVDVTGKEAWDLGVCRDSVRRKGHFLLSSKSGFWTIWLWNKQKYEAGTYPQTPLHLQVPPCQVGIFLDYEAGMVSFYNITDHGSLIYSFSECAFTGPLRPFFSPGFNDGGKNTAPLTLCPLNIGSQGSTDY
TRIM21-coiled-coil-PRYSPRY, sequence (P19474 128-475): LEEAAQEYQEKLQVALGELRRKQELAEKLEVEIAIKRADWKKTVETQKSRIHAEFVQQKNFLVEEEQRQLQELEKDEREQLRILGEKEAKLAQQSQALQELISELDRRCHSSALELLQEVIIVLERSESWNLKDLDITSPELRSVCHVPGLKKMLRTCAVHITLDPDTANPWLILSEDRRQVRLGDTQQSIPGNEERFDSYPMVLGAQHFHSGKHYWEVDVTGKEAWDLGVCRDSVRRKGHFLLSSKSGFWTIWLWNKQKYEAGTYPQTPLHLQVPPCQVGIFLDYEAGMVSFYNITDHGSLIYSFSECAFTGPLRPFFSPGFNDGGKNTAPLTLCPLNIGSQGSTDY
TRIM21-coiled-coil-PRYSPRY (TRIM21-CC-PS), sequence (P19474 128-475): as above
anti-AAV2 capsid antibody A20 WT (bivalent, human IgG1 Fc WT) (human), sequence (heavy, as listed by the source, chain 1 of 2): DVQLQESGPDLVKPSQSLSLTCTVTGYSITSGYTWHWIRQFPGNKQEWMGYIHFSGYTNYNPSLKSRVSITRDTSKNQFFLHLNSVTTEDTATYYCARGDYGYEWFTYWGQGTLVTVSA
anti-AAV2 capsid antibody A20 WT (bivalent, human IgG1 Fc WT) (human), sequence (light, as listed by the source, chain 2 of 2): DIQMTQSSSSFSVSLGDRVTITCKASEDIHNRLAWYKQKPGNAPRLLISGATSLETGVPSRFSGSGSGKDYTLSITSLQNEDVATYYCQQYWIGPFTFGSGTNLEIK
anti-AAV2 capsid antibody A20 WT (human), sequence (heavy, as listed by the source, chain 1 of 2): as the sequence (heavy, as listed by the source, chain 1 of 2) above
anti-AAV2 capsid antibody A20 WT (human), sequence (light, as listed by the source, chain 2 of 2): as the sequence (light, as listed by the source, chain 2 of 2) above

For orientation: pKd means the negative decadic logarithm of the Kd, by convention in mol/L. For orientation: koff means the first-order rate constant of dissociation. As usually defined, the kon is the rate constant with which the complex forms. In assay [1], Briakinumab (antibody) showed a pKd of 7.78, a koff of 0.102 s⁻¹ and a kon of 6.14e+06 M⁻¹ s⁻¹.
For “Fc WT (Fc-only variant, human IgG1 core hinge-CH2-CH3, wild type) (domain or fragment)”, in that order: 7.59, 0.132 s⁻¹ and 5.09e+06 M⁻¹ s⁻¹.
For the substance “TRIM21-coiled-coil-PRYSPRY (TRIM21-CC-PS) (from UniProt P19474-1 128-475) (domain or fragment)”, in assay [2], the pKd is 9.15. The percent complexed in the assay with mAb1 WT-AAA (human) stood at 2%. For the same substance, in the assay with mAb1 YTE (human), the avidity enhancement (K (D,AFFINITY)/K (D,AVIDITY)) amounted to 50 fold and the fold weaker against the WT avidity was determined as 2 fold. In addition, in the assay with mAb1 HH (human), the avidity enhancement (K (D,AFFINITY)/K (D,AVIDITY)) stood at 72 fold, the fold faster kinetic rates against YTE is 5 fold and the fold weaker against the WT avidity amounted to 2 fold.
Turning to “TRIM21-coiled-coil-PRYSPRY (from UniProt P19474-1 128-475) (domain or fragment)”, the pKd in [3] is 8.83; in [4], 6.66; in [5] it was 6.93; in assay [6] it was 8.86; in [7], 6.32. Further, the koff turned out to be 0.00127 s⁻¹ in assay [3]; 0.167 s⁻¹ in [4]; 0.129 s⁻¹ in [5]; 0.00651 s⁻¹ in assay [6]; 0.437 s⁻¹ in [7]; 0.000983 s⁻¹ in assay [8]. The kon in [3] was determined as 865000 M⁻¹ s⁻¹; in [4], 758000 M⁻¹ s⁻¹; in assay [5], 1.1e+06 M⁻¹ s⁻¹; in assay [6], 4.74e+06 M⁻¹ s⁻¹; in assay [7], 921000 M⁻¹ s⁻¹; in [8], 1.44e+06 M⁻¹ s⁻¹.
Ustekinumab (antibody): in assay [1], the pKd was 7.64, the koff worked out at 0.0884 s⁻¹ and the association rate constant (kon) worked out at 3.89e+06 M⁻¹ s⁻¹.

The values above are taken from article PMC11210195.
